Data reported in patent US20170121398A1 (PROTHENA BIOSCIENCES, published 2017).

Biological target: pH4.0-treated TTR (human, UniProt P02766 21-147)
Experiment: ELISA, pH4-treated TTR-His captured on an anti-His coat, anti-mouse HRP detection, OD450

B1: mouse antibody 6C1 (antibody, IgG1, V domains shown)
VH: EVQLVESGGGLVQPGGSLKLSCAASGFTFSNYYMSWVRQTPEKRLEWVAYISIDGNNIYHPDSVKGRFTISRDNAKNTLYLQMSSLKSEDTAMYYCARDSDYGYFDVWGTGTTVTVSS
VL: DVLMTQTPLSLPVSLGDQASISCRSSQSIVHSNGNTYLEWYLQKRGQSPKLLIYKVSKRFSGVPDRFSGSGSGTDFILKISRVEAEDLGVYYCFQGSHVPLTFGGGTKLELK
notes: also called m6C1; mis-TTR mAb 6C1
  EC50 (read off the curve): ~0.2 µg/mL
